Results published in patent US20180044393A1 (INSERM INSTITUT NATIONAL DE LA SANT ET DE LA RECHERCHE M …, published 2018).
Positions of bridges follow the written chain, without caps; N, C: chain ends. No end group written: not given here. *: point of attachment. 125I = [125I]*

Key:
Experiment in all cases: 125I-OxA binding on CHO-S cells expressing the OX1R mutant
OX1R Y211A = target: T1, OX1R Y211A (human, UniProt O43613 1-425)
T1 construct: site-directed mutant (TM5) stably expressed in CHO-S cells; not shown: YFP from vector pEYFP-N2 fused at the C-terminus
T1 chain: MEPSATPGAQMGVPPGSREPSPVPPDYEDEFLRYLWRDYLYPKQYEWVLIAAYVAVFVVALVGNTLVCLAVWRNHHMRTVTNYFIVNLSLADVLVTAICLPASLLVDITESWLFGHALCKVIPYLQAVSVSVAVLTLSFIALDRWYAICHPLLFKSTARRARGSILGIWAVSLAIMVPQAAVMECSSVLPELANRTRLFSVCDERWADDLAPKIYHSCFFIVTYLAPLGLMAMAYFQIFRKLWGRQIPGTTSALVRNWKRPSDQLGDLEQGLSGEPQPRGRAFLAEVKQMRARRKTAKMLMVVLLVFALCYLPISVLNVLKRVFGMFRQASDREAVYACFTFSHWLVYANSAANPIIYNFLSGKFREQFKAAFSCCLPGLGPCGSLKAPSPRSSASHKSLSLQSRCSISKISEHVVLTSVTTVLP
Protocol: (§1) CHO—S cells expressing recombinant native or mutated OX1R were grown as previously described (El Firar et al., 2009) and maintained at 37° C. in a humidified 5% CO₂/air incubator. ¹²⁵I-orexia-A (74 TBq/mmol) was prepared as previously described (El Firar et al., 2009). […] Free peptides were removed by 2 cell washing cycles with PBS. […] Data were analyzed using the GraphPad software (http://www.graphpad.com).
(§2) All residues of OX1R fulfilling this condition were mutated to alanine by site-directed mutagenesis (Table II).

OX1R Y348A = target: T2, OX1R Y348A (human, UniProt O43613 1-425)
T2 construct: site-directed mutant (TM7) stably expressed in CHO-S cells; not shown: YFP from vector pEYFP-N2 fused at the C-terminus
T2 chain: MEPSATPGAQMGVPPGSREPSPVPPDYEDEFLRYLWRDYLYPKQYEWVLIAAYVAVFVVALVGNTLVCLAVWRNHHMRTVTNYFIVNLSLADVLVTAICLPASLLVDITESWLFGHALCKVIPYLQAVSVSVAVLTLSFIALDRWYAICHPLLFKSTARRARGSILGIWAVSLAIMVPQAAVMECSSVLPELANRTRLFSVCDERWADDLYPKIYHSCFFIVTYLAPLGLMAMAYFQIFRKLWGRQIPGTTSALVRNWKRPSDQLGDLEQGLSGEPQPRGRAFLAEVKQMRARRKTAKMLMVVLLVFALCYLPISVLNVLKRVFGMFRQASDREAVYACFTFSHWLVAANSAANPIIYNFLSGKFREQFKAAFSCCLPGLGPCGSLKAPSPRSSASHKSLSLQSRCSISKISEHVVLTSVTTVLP
Protocol: as §1, §2

OX1R C99A = target: T3, OX1R C99A (human, UniProt O43613 1-425)
T3 construct: site-directed mutant (TM2) stably expressed in CHO-S cells; not shown: YFP from vector pEYFP-N2 fused at the C-terminus
T3 chain: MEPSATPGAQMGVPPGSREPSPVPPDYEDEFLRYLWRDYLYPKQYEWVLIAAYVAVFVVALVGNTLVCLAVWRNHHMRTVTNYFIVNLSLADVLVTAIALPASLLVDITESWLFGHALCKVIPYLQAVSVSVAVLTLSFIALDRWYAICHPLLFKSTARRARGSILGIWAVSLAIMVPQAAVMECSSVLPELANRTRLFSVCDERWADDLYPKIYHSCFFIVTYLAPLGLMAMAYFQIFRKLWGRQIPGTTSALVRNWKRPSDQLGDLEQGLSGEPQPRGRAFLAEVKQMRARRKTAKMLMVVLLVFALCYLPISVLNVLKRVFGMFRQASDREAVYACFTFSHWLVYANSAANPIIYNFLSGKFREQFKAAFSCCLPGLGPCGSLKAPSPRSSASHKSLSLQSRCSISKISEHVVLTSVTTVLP
Protocol: as §1, §2

OX1R K321A = target: T4, OX1R K321A (human, UniProt O43613 1-425)
T4 construct: site-directed mutant (TM6) stably expressed in CHO-S cells; not shown: YFP from vector pEYFP-N2 fused at the C-terminus
T4 chain: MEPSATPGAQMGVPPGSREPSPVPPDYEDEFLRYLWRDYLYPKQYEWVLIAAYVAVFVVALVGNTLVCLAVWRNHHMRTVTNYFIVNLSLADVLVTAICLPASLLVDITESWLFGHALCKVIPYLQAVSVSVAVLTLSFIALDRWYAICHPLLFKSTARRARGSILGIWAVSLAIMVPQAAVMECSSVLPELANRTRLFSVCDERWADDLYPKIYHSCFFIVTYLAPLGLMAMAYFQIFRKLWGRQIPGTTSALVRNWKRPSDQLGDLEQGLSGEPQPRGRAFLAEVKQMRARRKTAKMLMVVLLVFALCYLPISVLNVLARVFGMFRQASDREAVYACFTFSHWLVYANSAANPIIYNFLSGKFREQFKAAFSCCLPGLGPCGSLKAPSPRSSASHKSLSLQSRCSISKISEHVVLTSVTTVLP
Protocol: as §1, §2

OX1R I98A = target: T5, OX1R I98A (human, UniProt O43613 1-425)
T5 construct: site-directed mutant (TM2) stably expressed in CHO-S cells; not shown: YFP from vector pEYFP-N2 fused at the C-terminus
T5 chain: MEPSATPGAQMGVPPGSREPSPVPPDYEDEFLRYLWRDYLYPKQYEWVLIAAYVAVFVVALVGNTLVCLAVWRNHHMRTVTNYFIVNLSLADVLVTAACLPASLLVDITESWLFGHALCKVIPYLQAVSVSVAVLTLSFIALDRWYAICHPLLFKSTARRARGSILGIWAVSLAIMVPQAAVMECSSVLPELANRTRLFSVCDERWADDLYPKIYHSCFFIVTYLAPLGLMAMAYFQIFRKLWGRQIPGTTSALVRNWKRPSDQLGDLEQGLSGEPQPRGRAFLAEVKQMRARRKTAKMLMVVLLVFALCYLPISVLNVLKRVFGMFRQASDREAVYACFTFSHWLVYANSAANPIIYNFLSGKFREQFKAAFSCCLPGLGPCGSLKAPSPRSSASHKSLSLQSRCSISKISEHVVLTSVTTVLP
Protocol: as §1, §2

Measured: binding result

B1: 125I-orexin-A (peptide, UniProt O43612 34-66, looked up)
peptide: QPLPDCCRQKTCSCRLY(125I)ELLHGAGNHAAGILTL
modifications: disulfide 6-12, 7-14; not fully specified (residue 1, C-terminus)
notes: mature; also called OxA
binds: OX1R Y211A | OX1R Y348A | OX1R C99A | OX1R K321A | OX1R I98A
